Source: US20140193915, “COMPOSITIONS AND METHODS FOR CUSTOM SITE-SPECIFIC DNA RECOMBINASES” (Monsanto Technology, LLC, published 2014)
Changes are numbered by the printed parent chain.

T1: pN-TALER IV-1-EE2 (GinL7C7-EE2-TALE13) (synthetic)
T1 chain: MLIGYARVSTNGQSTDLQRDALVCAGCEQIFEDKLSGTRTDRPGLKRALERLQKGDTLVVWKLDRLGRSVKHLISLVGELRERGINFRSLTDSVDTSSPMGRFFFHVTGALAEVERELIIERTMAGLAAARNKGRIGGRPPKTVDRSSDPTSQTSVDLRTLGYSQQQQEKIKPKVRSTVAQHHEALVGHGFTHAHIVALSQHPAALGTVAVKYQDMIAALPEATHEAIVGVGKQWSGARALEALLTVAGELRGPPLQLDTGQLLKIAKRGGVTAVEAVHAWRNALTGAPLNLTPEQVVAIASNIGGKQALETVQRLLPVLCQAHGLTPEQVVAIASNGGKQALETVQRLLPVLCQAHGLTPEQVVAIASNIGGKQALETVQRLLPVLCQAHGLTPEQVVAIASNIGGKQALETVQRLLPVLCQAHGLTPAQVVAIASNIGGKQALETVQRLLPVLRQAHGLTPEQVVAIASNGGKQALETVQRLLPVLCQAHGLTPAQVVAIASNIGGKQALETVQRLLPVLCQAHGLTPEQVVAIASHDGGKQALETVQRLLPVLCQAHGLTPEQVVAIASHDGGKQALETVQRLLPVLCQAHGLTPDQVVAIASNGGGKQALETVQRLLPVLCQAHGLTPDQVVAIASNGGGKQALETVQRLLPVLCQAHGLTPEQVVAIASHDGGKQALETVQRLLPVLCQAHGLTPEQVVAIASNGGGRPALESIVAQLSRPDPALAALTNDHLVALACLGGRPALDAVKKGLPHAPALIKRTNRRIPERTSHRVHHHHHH

T2: pN-TALER N3.2 (synthetic)
T2 chain: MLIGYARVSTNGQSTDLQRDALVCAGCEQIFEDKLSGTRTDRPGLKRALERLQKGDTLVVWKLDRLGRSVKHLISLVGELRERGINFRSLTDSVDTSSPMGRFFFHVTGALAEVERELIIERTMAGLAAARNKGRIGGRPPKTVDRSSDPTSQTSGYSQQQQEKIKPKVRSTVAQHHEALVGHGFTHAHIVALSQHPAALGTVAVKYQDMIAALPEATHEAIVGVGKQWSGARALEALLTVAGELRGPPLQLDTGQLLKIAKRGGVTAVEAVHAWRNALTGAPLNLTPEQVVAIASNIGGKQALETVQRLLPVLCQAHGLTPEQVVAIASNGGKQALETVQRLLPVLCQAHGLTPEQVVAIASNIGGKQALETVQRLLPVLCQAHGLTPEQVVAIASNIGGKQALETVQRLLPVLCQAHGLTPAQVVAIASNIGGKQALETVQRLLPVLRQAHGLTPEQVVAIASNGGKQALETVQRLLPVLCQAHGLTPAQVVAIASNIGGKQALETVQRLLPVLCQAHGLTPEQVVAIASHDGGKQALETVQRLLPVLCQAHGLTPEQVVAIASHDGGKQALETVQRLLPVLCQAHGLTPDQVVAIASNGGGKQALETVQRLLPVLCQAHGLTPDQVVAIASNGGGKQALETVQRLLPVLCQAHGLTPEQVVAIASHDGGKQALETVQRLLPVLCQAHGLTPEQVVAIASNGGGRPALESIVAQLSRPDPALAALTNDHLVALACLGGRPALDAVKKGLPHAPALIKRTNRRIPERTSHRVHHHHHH

T3: pN-TALER IV-12 (synthetic)
T3 chain: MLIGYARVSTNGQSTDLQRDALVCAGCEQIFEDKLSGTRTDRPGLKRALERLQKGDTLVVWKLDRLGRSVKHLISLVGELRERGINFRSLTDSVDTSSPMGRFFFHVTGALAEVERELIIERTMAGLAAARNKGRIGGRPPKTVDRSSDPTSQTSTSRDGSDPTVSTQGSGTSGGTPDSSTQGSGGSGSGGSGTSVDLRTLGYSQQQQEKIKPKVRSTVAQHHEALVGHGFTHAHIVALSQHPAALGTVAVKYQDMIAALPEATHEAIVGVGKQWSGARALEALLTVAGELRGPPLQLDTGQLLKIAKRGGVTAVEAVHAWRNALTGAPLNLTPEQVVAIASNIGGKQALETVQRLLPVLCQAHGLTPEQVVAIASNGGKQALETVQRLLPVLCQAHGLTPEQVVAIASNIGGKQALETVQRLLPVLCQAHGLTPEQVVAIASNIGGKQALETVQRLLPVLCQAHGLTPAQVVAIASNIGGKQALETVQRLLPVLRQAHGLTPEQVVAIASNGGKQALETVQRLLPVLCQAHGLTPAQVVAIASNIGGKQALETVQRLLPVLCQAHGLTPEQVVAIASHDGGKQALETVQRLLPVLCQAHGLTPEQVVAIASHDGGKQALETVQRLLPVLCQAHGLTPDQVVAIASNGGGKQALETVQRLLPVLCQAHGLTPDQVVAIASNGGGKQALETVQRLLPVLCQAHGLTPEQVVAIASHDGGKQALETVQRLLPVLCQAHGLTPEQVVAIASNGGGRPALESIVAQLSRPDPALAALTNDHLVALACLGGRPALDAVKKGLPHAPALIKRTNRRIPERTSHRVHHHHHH

T4: sN-TALER IV-12 (synthetic)
T4 chain: T3 chain with A6V, G12D, S14N, D20N, E50K, V70M, V94I, H106Y, T108M, V114M

B1: Gin20TALE+5 (dsDNA)
DNA 1: AGAAGGTATTTATATATTATCCAAAACCATGGTTTACAGGACTATATAAATACCTTCT
DNA 2: AGAAGGTATTTATATAGTCCTGTAAACCATGGTTTTGGATAATATATAAATACCTTCT
B2: Gin20TALE+15 (dsDNA)
DNA 1: AGAAGGTATTTATATAGGCACACATGTTATCCAAAACCATGGTTTACAGGACGTTCACACGGTATATAAATACCTTCT
DNA 2: AGAAGGTATTTATATACCGTGTGAACGTCCTGTAAACCATGGTTTTGGATAACATGTGTGCCTATATAAATACCTTCT

Assays:
Experiment in all cases: cell_activity; E. coli
[1] = target: T1, pN-TALER IV-1-EE2 (GinL7C7-EE2-TALE13); details: tags: 6-His
Description: (§1) To test for recombination, E. coli DH5alpha cells were co-transformed with different combinations of TALER expression construct and TALER reporter construct pairs (Tables 6 and 7). The N-TALER expression and reporter constructs were in an approximate 1:1 mass ratio during the transformation. The co-transformed bacteria were plated on media with chloramphenicol, kanamycin, and X-gal then incubated at 37° C. for 18 to 36 hours. Control samples consisted of transformations using the reporter construct alone. Control transformants were similarly plated. The bacterial transformation protocol was either heat shock or electroporation per standard molecular biology techniques.
Two additional N-TALERs, based on N-TALER IV-1, were constructed wherein the GinH106Y recombinase catalytic domain was replaced with either the GinL7C7-EE2 catalytic domain or the GinL7C7-EE3 permissive recombinase catalytic domain. These N-TALERs were labeled pN-TALER IV-1-EE2 (SEQ ID NO:41) and pN-TALER IV-1-EE3 (SEQ ID NO:45), respectively. pN-TALER IV-1-EE2 was tested in combination with seventeen N-TALER reporter constructs and pN-TALER IV-1-EE3 was tested with three reporter constructs (Table 10).

pN-TALER N3.2 = target: T2, pN-TALER N3.2
Description: The co-transformed bacteria were plated on media with chloramphenicol, kanamycin, and X-gal then incubated at 37° C. for 18 to 36 hours. Control samples consisted of transformations using the reporter construct alone. Control transformants were similarly plated. The bacterial transformation protocol was either heat shock or electroporation per standard molecular biology techniques.
For each of these N-TALER chimera expression constructs, from one to three independent clones were selected for plasmid purification. These N-TALER chimera expression constructs were co-transformed with five of the N-TALER reporter constructs, as indicated in Table 15. […] In contrast to the result for pN-TALER N4.2.2, the chimera sN-TALER N4.2.2, with the same truncation point but a specific recombinase catalytic domain, reporters with 20, 24, or 40 bp of TALER central sequence length were efficiently recombined (score of 1) while reporters with 30 or 50 bp of TALER central sequence length were not recombined (score of 5). For the chimera sN-TALER N4.2, reporters with 20, 24, or 40 bp of TALER central sequence length were efficiently recombined (score of 1); the reporter with 30 bp of TALER central sequence length was poorly recombined (score of 3); and the reporter with 50 bp of TALER central sequence length was not recombined (score of 5). For the chimera pN-TALER N4.2, the recombination efficiency on the reporters tested varied from intermediate (scores of 3 and 4) to none (score of 5). […] In contrast to the result for sN-TALER N3.2, the chimera pN-TALER N3.2, with the same truncation point but a permissive recombinase catalytic domain, recombination efficiency on the reporters tested varied from efficient (scores of 1.5, 2, and 3) to none (score of 5). For both chimeras sN-TALER V.2 and pN-TALER V.2, there was efficient recombination (scores of 1, 1.5, and 2) of the 5 N-TALER reporter constructs tested.

pN-TALER IV-12 = target: T3, pN-TALER IV-12
Description: as §1
(§2) The N-TALER expression constructs representing the N-TALER chimeras with varying linker lengths were co-transformed with N-TALER reporter constructs with TALER central sequence lengths of 18, 20, 24, 30, 40, and 50 bp (Table 13). […] Recombination did occur, but was less efficient with the pN-TALER IV-14 (linker length of 71 amino acids) with each of the N-TALER reporters tested.

sN-TALER IV-12 = target: T4, sN-TALER IV-12
Description: as §1, §2

Row | Binder | activity [1] [score] | activity (pN-TALER N3.2) [score] | activity (pN-TALER IV-12) [score] | activity (sN-TALER IV-12) [score]
1 | B1 | 1 | 1.5 |  | 
2 | B2 |  |  | 1 | 1
